B1: LOXL2 (parent)
chain: HISSCKLGPQVSLDPMKNVTCENG
B2: PLAGL1 (parent)
chain: LELGSTEVLLDHLKAHAEEKPPSG

Variants of: B1
Experiment: protein stability index of a GFP-peptide fusion (GPS, HEK-293T) (PSI 1-6); higher = more stable
Conditions: c terminus: a fixed tail appended
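Also: lentivirally expressed fusions sorted by FACS into six bins by GFP to DsRed ratio, PSI derived from sequencing read proportions per bin multiplied by bin number.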

Protein stability index of substitutions, site by site:
I2: L 4.24 | S 4.34 | N 3.76 | C 3.44 | V 4.21 | Q 4.25 | T 4.54 | G 4.53 | A 4.35 | M 4.41 | W 3.31 | Y 3.61 | F 3.58 | E 4.48 | K 3.4 | R 4.11 | P 3.76 | H 3.53 | D 4.58
H1: N 4.52 | R 3.95 | I 2.63 | Q 3.95 | T 4.07 | D 4.33 | A 3.87 | L 3.29 | S 4.14 | F 2.01 | Y 2.46 | C 3.73 | G 4.46 | P 4.33 | V 3.72 | K 4.22 | W 3.42 | M 3.95 | E 3.96
S4: M 3.94 | H 3.98 | A 3.65 | C 3.78 | G 3.79 | E 4.37 | N 3.47 | D 3.61 | P 4.22 | I 3.02 | L 3.6 | K 3.96 | F 3.34
S3: T 3.59 | K 4.01 | V 3.12 | Y 2.62 | L 3.19 | R 3.48 | F 2.94 | D 4.39 | E 4.24 | N 4.24 | Q 3.92 | C 2.78 | P 3.99 | I 3.39 | M 3.3 | G 4.2 | W 3.14 | A 3.69 | H 3.51

Variants of: B2
Experiment: as above
Conditions: c terminus: a fixed tail appended

Protein stability index: each site, then its substitutions
L3: W 4.49 | C 5.21 | Q 5.55 | V 4.9 | H 5.4 | T 5.18 | Y 5.45 | R 5.54 | S 5.72 | I 4.74 | K 5.19 | E 5.8 | M 4.09
H12: F 2.71 | R 4.37 | G 5.16 | Q 4.82 | T 4.62 | W 3 | S 4.9 | C 4.32 | M 3.06 | E 5.54
P21: Y 3.39 | M 4.4 | L 3.6 | V 4.41 | D 4.92 | E 5.38 | R 4.47 | S 4.53 | I 4.22
L13: K 5.68 | F 4.22 | V 4.36 | W 3.78 | Y 3.9 | D 5.87 | G 5.46 | P 5.35 | C 4.84
L9: I 4.45 | K 4.99 | C 5.04 | S 5.72 | P 5.57 | V 4.97 | Q 5.84 | D 4.91 | A 5.08 | Y 4.83 | H 5.15
K20: T 4.86 | C 4 | N 4.58 | R 4.26 | I 3.71 | L 3.9 | P 4.88 | A 4.56 | Y 3.6 | Q 3.56 | D 4.64
D11: M 2.2 | F 1.77 | T 3.07 | R 3.46 | C 2.36 | K 3.65 | W 3.03 | A 4 | S 3.54 | E 3.56 | H 3.79 | Y 2.7 | N 4.29
E2: K 4.23 | G 4.81 | N 4.69 | H 4.03 | R 3.4 | S 3.37 | Q 4.19 | P 4.67 | D 4.03 | I 3.18 | T 4.16 | Y 2.34 | M 2.81
E7: L 3.41 | M 3.54 | D 5.27 | F 3.86 | H 4.39 | G 4.89 | W 3.04 | C 4.27
